Measurements reported in PMC5992710.

Experiments:
[1] = target: recombinant 0076 protein (ferritin encoded by mycma_0076) from Mycobacterium abscessus subsp. massiliense GO06 (Mycobacterium abscessus subsp. massiliense GO06); experiment: SEC; Superdex 200 10/300 GL, 50 mM NaH2PO4 pH 8.0, 300 mM NaCl, 1 ml/min, calibrated with molecular weight standards; apparent mass
[2] = target: recombinant 0076 protein (ferritin encoded by mycma_0076) from Mycobacterium abscessus subsp. massiliense GO06 (Mycobacterium abscessus subsp. massiliense GO06); experiment: dynamic light scattering; r0076 1 mg/ml in 50 mM NaH2PO4 pH 8.0, 50 mM NaCl; RH converted to mass assuming a spherical particle; 20 to 90°C

stoichiometry N [1]: 24 subunits
stoichiometry N [2]: 24 subunits
Substance: recombinant 0076 protein (ferritin encoded by mycma_0076) from Mycobacterium abscessus subsp. massiliense GO06 (natural protein)
